From doi:10.1101/2023.02.14.528348v1

Substrate: C[C@H](N)C(=O)N[C@@H](C)C(=O)O
Experiment: proton-coupled uptake, pyranine fluorescence assay in proteoliposomes
Type: biochemical, Escherichia coli
Settings: valinomycin / potassium gradient driven membrane potential

B1: DtpB (Escherichia coli K-12) (protein)
chain: MNTTTPMGMLQQPRPFFMIFFVELWERFGYYGVQGVLAVFFVKQLGFSQEQAFVTFGAFAALVYGLISIGGYVGDHLLGTKRTIVLGALVLAIGYFMTGMSLLKPDLIFIALGTIAVGNGLFKANPASLLSKCYPPKDPRLDGAFTLFYMSINIGSLIALSLAPVIADRFGYSVTYNLCGAGLIIALLVYIACRGMVKDIGSEPDFRPMSFSKLLYVLLGSVVMIFVCAWLMHNVEVANLVLIVLSIVVTIIFFRQAFKLDKTGRNKMFVAFVLMLEAVVFYILYAQMPTSLNFFAINNVHHEILGFSINPVSFQALNPFWVVLASPILAGIYTHLGNKGKDLSMPMKFTLGMFMCSLGFLTAAAAGMWFADAQGLTSPWFIVLVYLFQSLGELFISALGLAMIAALVPQHLMGFILGMWFLTQAAAFLLGGYVATFTAVPDNITDPLETLPVYTNVFGKIGLVTLGVAVVMLLMVPWLKRMIATPESH
Km: 290 ± 40 µM
